Residue numbers refer to the chain shown, from its start.
B1: human LACTB (residues 97 to 547) with the L15 loop (V467 to Y482) replaced by a GGS linker (enzyme)
chain: APPCSRCFARAIESSRDLLHRIKDEVGAPGIVVGVSVDGKEVWSEGLGYADVENRVPCKPETVMRIASISKSLTMVALAKLWEAGKLDLDIPVQHYVPEFPEKEYEGEKVSVTTRLLISHLSGIRHYEKDIKKVKEEKAYKALKMMKENVAFEQEKEGKSNEKNDFTKFKTEQENEAKCRNSKPGKKKNDFEQGELYLREKFENSIESLRLFKNDPLFFKPGSQFLYSTFGYTLLAAIVERASGCKYLDYMQKIFHDLDMLTTVQEENEPVIYNRARFYVYNKKKRLVNTPYVDNSYKWAGGGFLSTVGDLLKFGNAMLYGYQVGLFKNSNENLLPGYLKPETMVMMWTPVPNTEMSWDKEGKYAMAWGVGGSASHTGGAVGASSVLLVLPEELDTETINNKVPPRGIIVSIICNMQSVGLNSTALKIALEFDKDRSD
notes: human LACTB, residues 97 up to the residue before V467; glycine-glycine-serine (GGS) linker in place of V467 to Y482; human LACTB, from the residue after Y482 to 547; also called L15 loop replacement; removal of the L15 loop; source: E. coli BL21(DE3)-RIPL, purified (Ni-NTA, tag removed with Ulp1, SEC on Superose 6 Increase); not shown: His6, N-terminal, cleaved; SUMO, N-terminal, cleaved
B2: human LACTB (residues 97 to 547) 259EAxAxEAE266 mutant (enzyme, UniProt P83111 97-547, looked up)
chain: APPCSRCFARAIESSRDLLHRIKDEVGAPGIVVGVSVDGKEVWSEGLGYADVENRVPCKPETVMRIASISKSLTMVALAKLWEAGKLDLDIPVQHYVPEFPEKEYEGEKVSVTTRLLISHLSGIRHYEKDIKKVKEEKAYKALKMMKENVAFEQEKEGKSNEEADATEAETEQENEAKCRNSKPGKKKNDFEQGELYLREKFENSIESLRLFKNDPLFFKPGSQFLYSTFGYTLLAAIVERASGCKYLDYMQKIFHDLDMLTTVQEENEPVIYNRARFYVYNKKKRLVNTPYVDNSYKWAGGGFLSTVGDLLKFGNAMLYGYQVGLFKNSNENLLPGYLKPETMVMMWTPVPNTEMSWDKEGKYAMAWGVVERKQTYGSCRKQRHYASHTGGAVGASSVLLVLPEELDTETINNKVPPRGIIVSIICNMQSVGLNSTALKIALEFDKDRSD
notes: human LACTB, residues 97 to 547, motif 259KNxFxKFK266 changed to 259EAxAxEAE266; single changes counted out from the printed motifs; source: E. coli BL21(DE3)-RIPL, purified (Ni-NTA, tag removed with Ulp1, SEC on Superose 6 Increase); not shown: His6, N-terminal, cleaved; SUMO, N-terminal, cleaved
B3: human LACTB (residues 97 to 547) 274ExExxExxEEE284 mutant (enzyme, UniProt P83111 97-547, looked up)
chain: APPCSRCFARAIESSRDLLHRIKDEVGAPGIVVGVSVDGKEVWSEGLGYADVENRVPCKPETVMRIASISKSLTMVALAKLWEAGKLDLDIPVQHYVPEFPEKEYEGEKVSVTTRLLISHLSGIRHYEKDIKKVKEEKAYKALKMMKENVAFEQEKEGKSNEKNDFTKFKTEQENEAECENSEPGEEENDFEQGELYLREKFENSIESLRLFKNDPLFFKPGSQFLYSTFGYTLLAAIVERASGCKYLDYMQKIFHDLDMLTTVQEENEPVIYNRARFYVYNKKKRLVNTPYVDNSYKWAGGGFLSTVGDLLKFGNAMLYGYQVGLFKNSNENLLPGYLKPETMVMMWTPVPNTEMSWDKEGKYAMAWGVVERKQTYGSCRKQRHYASHTGGAVGASSVLLVLPEELDTETINNKVPPRGIIVSIICNMQSVGLNSTALKIALEFDKDRSD
notes: human LACTB, residues 97 to 547, motif 274KxRxxKxxKKK284 changed to 274ExExxExxEEE284; single changes counted out from the printed motifs; source: E. coli BL21(DE3)-RIPL, purified (Ni-NTA, tag removed with Ulp1, SEC on Superose 6 Increase); not shown: His6, N-terminal, cleaved; SUMO, N-terminal, cleaved
B4: human LACTB (residues 97 to 547) R117E (enzyme, UniProt P83111 97-547, looked up)
chain: B2 chain with R21E, E163K, A164N, A166F, E168K, A169F, E170K
notes: human LACTB, residues 97 to 547, polymer interface 1 charge-reversal mutant; source: E. coli BL21(DE3)-RIPL, purified (Ni-NTA, tag removed with Ulp1, SEC on Superose 6 Increase); not shown: His6, N-terminal, cleaved; SUMO, N-terminal, cleaved
B5: human LACTB (residues 97 to 547) with the flexible loop region (residues K255 to K284) replaced by a GGS linker (enzyme)
chain: APPCSRCFARAIESSRDLLHRIKDEVGAPGIVVGVSVDGKEVWSEGLGYADVENRVPCKPETVMRIASISKSLTMVALAKLWEAGKLDLDIPVQHYVPEFPEKEYEGEKVSVTTRLLISHLSGIRHYEKDIKKVKEEKAYKALKMMKENVAFEQEKEGGGSNDFEQGELYLREKFENSIESLRLFKNDPLFFKPGSQFLYSTFGYTLLAAIVERASGCKYLDYMQKIFHDLDMLTTVQEENEPVIYNRARFYVYNKKKRLVNTPYVDNSYKWAGGGFLSTVGDLLKFGNAMLYGYQVGLFKNSNENLLPGYLKPETMVMMWTPVPNTEMSWDKEGKYAMAWGVVERKQTYGSCRKQRHYASHTGGAVGASSVLLVLPEELDTETINNKVPPRGIIVSIICNMQSVGLNSTALKIALEFDKDRSD
notes: human LACTB, residues 97 up to the residue before K255; GGS linker in place of K255 to K284; human LACTB, from the residue after K284 to 547; also called ΔL6; flexible loop deletion; source: E. coli BL21(DE3)-RIPL, purified (Ni-NTA, tag removed with Ulp1, SEC on Superose 6 Increase); not shown: His6, N-terminal, cleaved; SUMO, N-terminal, cleaved
B6: human LACTB (residues 97 to 547), wild-type (enzyme, UniProt P83111 97-547, looked up)
chain: B2 chain with E163K, A164N, A166F, E168K, A169F, E170K
notes: human LACTB (serine beta-lactamase-like protein, mitochondrial), residues 97 to 547 of the gene product of residues 1 to 547; Assembles into helical filaments of stacked antiparallel dimers; number of copies not fixed; also called WT LACTB; serine beta-lactamase-like protein; source: E. coli BL21(DE3)-RIPL, purified (Ni-NTA, tag removed with Ulp1, SEC on Superose 6 Increase); not shown: His6, …

Target: the molecule itself
Assay: negative-stain TEM; SEC peak fractions diluted to approximately 2.0 μm (so in the source), 0.75% uranyl formate, Tecnai T12 at 100 kV; self-assembly into filaments

Binding result, binds:
B1
B2
B3
B4
B5

Target: the molecule itself
Assay: SEC; Superose 6 Increase 10/300 GL; 20 mM HEPES-NaOH (pH 7.5), 140 mM NaCl, 10 mM KCl, 1 mM MgCl2, 1 mM DTT; self-assembly, filaments elute within the void volume

Binding result, binds:
B6

Reference: PMC9815587, “The structure of the human LACTB filament reveals the mechanisms of assembly and membrane binding” (PLOS Biology, 2022)
